Source: patent US20260091080A1 (CELOSIA THERAPEUTICS, published 2026)
Each block holds one binder with its values, some of them ahead of it.

Columns and labels:
[1] = molecular target: endogenous TDP-43 of murine N2a cells and mouse brain (mouse, UniProt Q921F2 1-414); test: co-immunoprecipitation from N2a cells and mouse brain
FOXO1 = FOXO1 (UniProt Q12778 1-655, limits assumed); test: co-precipitation with expressed Fx
[2] = molecular target: YES-associated protein (YAP) (UniProt P46937 1-504); test: co-precipitation with expressed Fx
Sequence of YES-associated protein (YAP) (P46937 whole entry): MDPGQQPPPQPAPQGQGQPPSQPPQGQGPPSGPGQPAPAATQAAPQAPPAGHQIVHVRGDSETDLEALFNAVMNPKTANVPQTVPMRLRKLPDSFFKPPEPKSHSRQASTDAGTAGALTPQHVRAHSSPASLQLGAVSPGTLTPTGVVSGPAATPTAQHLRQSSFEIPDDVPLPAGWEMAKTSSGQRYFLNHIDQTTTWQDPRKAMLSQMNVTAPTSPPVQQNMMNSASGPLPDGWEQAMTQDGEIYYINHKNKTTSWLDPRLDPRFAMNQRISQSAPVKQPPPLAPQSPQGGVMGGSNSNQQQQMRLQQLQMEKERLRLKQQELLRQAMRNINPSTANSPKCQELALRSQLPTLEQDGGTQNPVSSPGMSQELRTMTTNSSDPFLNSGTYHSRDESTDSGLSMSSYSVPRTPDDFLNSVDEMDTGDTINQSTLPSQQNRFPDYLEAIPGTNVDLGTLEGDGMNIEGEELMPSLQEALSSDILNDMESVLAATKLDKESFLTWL

Sequence of endogenous TDP-43 of murine N2a cells and mouse brain (Q921F2 whole entry): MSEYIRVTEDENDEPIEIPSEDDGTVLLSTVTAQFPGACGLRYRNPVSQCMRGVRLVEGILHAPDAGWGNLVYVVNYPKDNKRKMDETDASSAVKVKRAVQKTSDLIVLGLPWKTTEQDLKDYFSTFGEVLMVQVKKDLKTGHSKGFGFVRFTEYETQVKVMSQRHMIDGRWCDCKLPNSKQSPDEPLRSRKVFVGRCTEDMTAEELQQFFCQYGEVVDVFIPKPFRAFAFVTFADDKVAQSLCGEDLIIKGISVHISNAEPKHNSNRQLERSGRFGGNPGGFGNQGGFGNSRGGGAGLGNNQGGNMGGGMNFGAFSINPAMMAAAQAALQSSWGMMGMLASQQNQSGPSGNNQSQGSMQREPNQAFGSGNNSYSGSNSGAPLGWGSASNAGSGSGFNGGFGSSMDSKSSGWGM
Sequence of FOXO1 (Q12778 whole entry): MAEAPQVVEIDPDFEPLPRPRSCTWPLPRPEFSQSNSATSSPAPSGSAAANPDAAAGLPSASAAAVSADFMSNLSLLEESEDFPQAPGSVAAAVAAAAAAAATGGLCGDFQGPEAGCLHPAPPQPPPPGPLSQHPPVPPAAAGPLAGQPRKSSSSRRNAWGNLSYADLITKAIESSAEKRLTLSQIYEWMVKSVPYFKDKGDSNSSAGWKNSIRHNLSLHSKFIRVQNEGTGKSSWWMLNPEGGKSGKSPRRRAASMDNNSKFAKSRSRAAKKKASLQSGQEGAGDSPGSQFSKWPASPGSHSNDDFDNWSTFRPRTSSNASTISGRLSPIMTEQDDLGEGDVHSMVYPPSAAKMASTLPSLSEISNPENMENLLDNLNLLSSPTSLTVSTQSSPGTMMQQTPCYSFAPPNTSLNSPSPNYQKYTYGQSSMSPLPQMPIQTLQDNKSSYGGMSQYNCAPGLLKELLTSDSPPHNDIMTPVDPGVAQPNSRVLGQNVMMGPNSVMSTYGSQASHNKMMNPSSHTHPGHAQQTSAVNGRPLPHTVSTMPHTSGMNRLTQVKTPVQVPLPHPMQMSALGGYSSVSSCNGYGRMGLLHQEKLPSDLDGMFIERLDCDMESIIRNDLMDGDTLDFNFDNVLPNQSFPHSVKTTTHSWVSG

binding result [1]: binds
B1: endogenous 14-3-3θ of murine N2a cells and mouse brain (other, UniProt P68254 1-245, looked up)
chain: MEKTELIQKAKLAEQAERYDDMATCMKAVTEQGAELSNEERNLLSVAYKNVVGGRRSAWRVISSIEQKTDTSDKKLQLIKDYREKVESELRSICTTVLELLDKYLIANATNPESKVFYLKMKGDYFRYLAEVACGDDRKQTIENSQGAYQEAFDISKKEMQPTHPIRLGLALNFSVFYYEILNNPELACTLAKTAFDEAIAELDTLNEDSYKDSTLIMQLLRDNLTLWTSDSAGEECDAAEGAEN

binding result (FOXO1): no binding
binding result [2]: no binding
Binder: GDDRKQTIDNSQGAYQEAFDISKKEMQPTH (not shown: V5 tag) [14-3-3θ-Fx-V5 (α-helix 6 (αF) of 14-3-3θ alone)]
